Source: PMC9700037 (2022)

Target: T1, biotin-MBP-NLRP1 M1184V (Avi-MBP-tev-NLRP1 M1184V) (human, UniProt Q9C000 1-1473, M1184V, biotin (on the Avi tag, BirA co-expressed))
T1 sequence: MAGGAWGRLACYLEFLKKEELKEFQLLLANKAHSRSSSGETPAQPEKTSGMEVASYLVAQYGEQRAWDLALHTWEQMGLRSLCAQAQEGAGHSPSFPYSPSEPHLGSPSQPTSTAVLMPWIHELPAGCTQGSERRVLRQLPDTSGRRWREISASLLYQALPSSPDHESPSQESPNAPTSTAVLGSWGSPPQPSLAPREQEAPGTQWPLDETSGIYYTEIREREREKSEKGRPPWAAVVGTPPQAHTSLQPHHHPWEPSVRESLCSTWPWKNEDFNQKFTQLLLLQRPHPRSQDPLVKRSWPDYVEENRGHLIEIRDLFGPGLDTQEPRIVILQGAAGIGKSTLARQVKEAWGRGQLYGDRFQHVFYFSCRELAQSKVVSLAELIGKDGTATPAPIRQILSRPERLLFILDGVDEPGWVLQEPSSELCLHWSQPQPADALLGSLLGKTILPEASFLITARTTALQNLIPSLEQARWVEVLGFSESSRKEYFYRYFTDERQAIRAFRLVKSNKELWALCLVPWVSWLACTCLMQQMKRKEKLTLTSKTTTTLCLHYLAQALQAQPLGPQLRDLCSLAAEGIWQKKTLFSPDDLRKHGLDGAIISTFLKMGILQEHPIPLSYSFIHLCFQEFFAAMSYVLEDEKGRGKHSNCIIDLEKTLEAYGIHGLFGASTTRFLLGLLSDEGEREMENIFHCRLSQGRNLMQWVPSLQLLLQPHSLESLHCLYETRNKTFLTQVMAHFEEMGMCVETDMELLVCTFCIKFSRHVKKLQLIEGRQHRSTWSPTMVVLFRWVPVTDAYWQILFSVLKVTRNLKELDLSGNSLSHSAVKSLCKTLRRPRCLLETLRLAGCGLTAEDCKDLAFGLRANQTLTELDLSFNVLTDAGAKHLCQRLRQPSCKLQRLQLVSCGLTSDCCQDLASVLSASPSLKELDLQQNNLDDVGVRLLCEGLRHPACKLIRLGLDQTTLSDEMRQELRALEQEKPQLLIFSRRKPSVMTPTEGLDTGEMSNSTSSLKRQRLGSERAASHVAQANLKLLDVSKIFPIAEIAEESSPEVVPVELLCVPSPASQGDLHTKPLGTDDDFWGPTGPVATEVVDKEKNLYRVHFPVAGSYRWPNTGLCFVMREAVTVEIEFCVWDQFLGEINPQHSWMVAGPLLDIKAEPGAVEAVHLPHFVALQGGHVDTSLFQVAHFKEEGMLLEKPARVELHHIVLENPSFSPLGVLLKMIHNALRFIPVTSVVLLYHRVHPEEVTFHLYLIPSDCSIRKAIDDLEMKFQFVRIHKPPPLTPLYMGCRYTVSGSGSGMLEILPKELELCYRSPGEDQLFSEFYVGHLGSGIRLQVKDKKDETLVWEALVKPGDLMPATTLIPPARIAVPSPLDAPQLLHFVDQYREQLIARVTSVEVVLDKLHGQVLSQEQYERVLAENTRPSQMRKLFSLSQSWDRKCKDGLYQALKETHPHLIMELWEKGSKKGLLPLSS
Experiment: SPR; NLRP1 void (high MW) fraction

Kd: 113 nM
B1: His6-tev-DPP9 (enzyme)
chain: MATTGTPTADRGDAAATDDPAARFQVQKHSWDGLRSIIHGSRKYSGLIVNKAPHDFQFVQKTDESGPHSHRLYYLGMPYGSRENSLLYSEIPKKVRKEALLLLSWKQMLDHFQATPHHGVYSREEELLRERKRLGVFGITSYDFHSESGLFLFQASNSLFHCRDGGKNGFMVSPMKPLEIKTQCSGPRMDPKICPADPAFFSFINNSDLWVANIETGEERRLTFCHQGLSNVLDDPKSAGVATFVIQEEFDRFTGYWWCPTASWEGSEGLKTLRILYEEVDESEVEVIHVPSPALEERKTDSYRYPRTGSKNPKIALKLAEFQTDSQGKIVSTQEKELVQPFSSLFPKVEYIARAGWTRDGKYAWAMFLDRPQQWLQLVLLPPALFIPSTENEEQRLASARAVPRNVQPYVVYEEVTNVWINVHDIFYPFPQSEGEDELCFLRANECKTGFCHLYKVTAVLKSQGYDWSEPFSPGEDEFKCPIKEEIALTSGEWEVLARHGSKIWVNEETKLVYFQGTKDTPLEHHLYVVSYEAAGEIVRLTTPGFSHSCSMSQNFDMFVSHYSSVSTPPCVHVYKLSGPDDDPLHKQPRFWASMMEAASCPPDYVPPEIFHFHTRSDVRLYGMIYKPHALQPGKKHPTVLFVYGGPQVQLVNNSFKGIKYLRLNTLASLGYAVVVIDGRGSCQRGLRFEGALKNQMGQVEIEDQVEGLQFVAEKYGFIDLSRVAIHGWSYGGFLSLMGLIHKPQVFKVAIAGAPVTVWMAYDTGYTERYMDVPENNQHGYEAGSVALHVEKLPNEPNRLLILHGFLDENVHFFHTNFLVSQLIRAGKPYQLQIYPNERHSIRCPESGEHYEVTLLHFLQEYL
